Measurements: PMC2768988

Assays:
[1] = molecular target: Flrt1a ectodomain (zebrafish); assay: SPR; BIAcore, kinetic analysis; same surfaces; three concentrations of Unc5b-Cd4d3+4-6His, flow 100 μl/min, 10 Hz, global fit of first-order decay and of an association model; HBS-EP, 28°C; purification of the Flrt baits not stated
[2] = molecular target: Flrt1b ectodomain (zebrafish); assay: as above
[3] = molecular target: Flrt3 ectodomain (zebrafish); assay: as above
[4] = molecular target: Flrt1a ectodomain (zebrafish); assay: SPR; BIAcore, equilibrium analysis; biotinylated Flrt-Cd4d3+4-bio baits (about 1000 RU) on a streptavidin-coated chip, Cd4d3+4-bio as reference; purified monomeric Unc5b-Cd4d3+4-6His injected; HBS-EP, 28°C; purification of the Flrt baits not stated
[5] = molecular target: Flrt1b ectodomain (zebrafish); assay: as above
[6] = molecular target: Flrt3 ectodomain (zebrafish); assay: as above

## Unc5b-Cd4d3+4-6His (domain or fragment)
[1]
  koff: > 7 s⁻¹
  kon: > 100000 M⁻¹ s⁻¹
  t1/2: < 0.1 s
[2]
  koff: 0.6 s⁻¹
  kon: > 100000 M⁻¹ s⁻¹
  t1/2: 1.2 s
[3]
  kon: > 100000 M⁻¹ s⁻¹
[4]
  Kd: > 50 µM
[5]
  Kd: 4 µM
[6]
  Kd: 14 µM
